Measured values as given in PMC4204861.

Target: rEag1-Δeag (rat)

For “rEag1 eag domain fragment (domain or fragment)”, the slow phase of inactivation of rEag1-Δeag (10- or 40-sec test pulses), two-electrode voltage clamp in Xenopus oocytes, co-expression (% reduction in current amplitude) was 60.
